Results as given in patent US9932404B2 (Janssen Biotech, Inc., dated 2018).

These binders were tested against full length human TLR3 (human) (assay: cell-based or functional assay).

| Binder | % inhibition of poly(I:C)-induced NF-κB luciferase reporter [%] |
| --- | --- |
| mAb 2 (antibody, V domains shown) VH: QVELVQSGAEVKKPGESLKISCKGSGYSFNNYWIGWVRQMPGKGLEWMGIIDPQDSWTNYAPSFQGQVTISADKSISTAYLQWSSLKASDTAMYYCARNIYEFDYWGQGTLVTVSS VL: DIQMTQSPSSLSASVGDRVTITCRASQGISSWLNWYQQKPGKAPKLLIYGASNLQSGVPSRFSGSGSGTDFTLTISSLQPEDFAVYYCQQYDDFSITFGQGTKVEIK | > 50 |
| mAb 16 (antibody, V domains shown) VH: QVELVQSGAEVKKPGESLKISCKGSGYSFNNYWIGWVRQMPGKGLEWMGIIDPGDSYTNYAPSFQGQVTISADKSISTAYLQWSSLKASDTAMYYCARNIYEFDYWGQGTLVTVSS VL: DIQMTQSPSSLSASVGDRVTITCRASQGISSWLNWYQQKPGKAPKLLIYGASNLQSGVPSRFSGSGSGTDFTLTISSLQPEDFAVYYCQQYDDFSITFGQGTKVEIK | > 50 |
| mAb 4 (antibody, V domains shown) VH: QVELQQSGPGLVKPSQTLSLTCAISGDSVSTRSAAWGWIRQSPGRGLEWLGKISYRSRWYNDYAVSVKSRITINPDTSKNQFSLQLNSVTPEDTAVYYCARHTYPYLSFDVWGQGTLVTVSS VL: DIELTQPPSVSVAPGQTARISCSGDALGGYFVSWYQQKPGQAPVLVIYDDDNRPSGIPERFSGSNSGNTATLTISGTQAEDEADYYCASYDGDEFTVFGGGTKLTVL | > 50 |
| mAb 7 (antibody, V domains shown) VH: QVELQQSGPGLVKPSQTLSLTCAISGDSVSTRSAAWGWIRQSPGRGLEWLGRIYMRSKWYNDYAVSVKSRITINPDTSKNQFSLQLNSVTPEDTAVYYCARHTYPYLSFDVWGQGTLVTVSS VL: DIELTQPPSVSVAPGQTARISCSGDALGGYFVSWYQQKPGQAPVLVIYDDDNRPSGIPERFSGSNSGNTATLTISGTQAEDEADYYCSSYDSDSLTVFGGGTKLTVL | > 50 |
| mAb 12 (antibody, V domains shown) V domain 1: QVELQQSGPGLVKPSQTLSLTCAISGDSVSSNSAAWGWIRQSPGRGLEWLGIIQKRSKWYNNYAVSVKSRITINPDTSKNQFSLQLNSVTPEDTAVYYCARYSYPFYSIDYWGQGTLVTVSS V domain 2: DIELQQSGPGLVKPSQTLSLTCAISGDSVSSNSAAWGWIRQSPGRGLEWLGIIQKRSKWYNNYAVSVKSRITINPDTSKNQFSLQLNSVTPEDTAVYYCARYSYPFYSIDYWGQGTLVTVSS | > 50 |
| mAb 9 (antibody, V domains shown) VH: QVELQQSGPGLVKPSQTLSLTCAISGDSVSSNSAAWGWIRQSPGRGLEWLGIIQIRSKWYNDYALSVKSRITINPDTSKNQFSLQLNSVTPEDTAVYYCARYSYPFYSIDYWGQGTLVTVSS VL: DIELTQPPSVSVAPGQTARISCSGDNIGSYYVHWYQQKPGQAPVLVIYEDSERPSGIPERFSGSNSGNTATLTISGTQAEDEADYYCQSYDSQFSFGVFGGGTKLTVL | > 50 |
| mAb 18 (antibody, V domains shown) VH: QVELQQSGPGLVKPSQTLSLTCAISGDSVSSNSAAWGWIRQSPGRGLEWLGIIQKRSKWYNNYAVSVKSRITINPDTSKNQFSLQLNSVTPEDTAVYYCARYSYPFYSIDYWGQGTLVTVSS VL: DIELTQPPSVSVAPGQTARISCSGDNIGSYYVHWYQQKPGQAPVLVIYEDSERPSGIPERFSGSNSGNTATLTISGTQAEDEADYYCQSYDSQFSFGVFGGGTKLTVL | > 50 |
| mAb 13 (antibody, V domains shown) VH: QVELVQSGAEVKKPGESLKISCKGSGYSFTNYWVGWVRQMPGKGLEWMGFIDPSDSYTNYAPSFQGQVTISADKSISTAYLQWSSLKASDTAMYYCARELYQGYMDTFDSWGQGTLVTVSS VL: DIQMTQSPSSLSASVGDRVTITCRASQSIGLYLAWYQQKPGKAPKLLIYAASSLQSGVPSRFSGSGSGTDFTLTISSLQPEDFATYYCQQGESILSTFGQGTKVEIK | > 50 |
| mAb 14 (antibody, V domains shown) VH: QVELVQSGAEVKKPGESLKISCKGSGYSFTNYWVGWVRQMPGKGLEWMGFIDPSDSYTNYAPSFQGQVTISADKSISTAYLQWSSLKASDTAMYYCARELYQGYMDTFDSWGQGTLVTVSS VL: DIQMTQSPSSLSASVGDRVTITCRASQSIGLYLAWYQQKPGKAPKLLIYAASSLQSGVPSRFSGSGSGTDFTLTISSLQPEDFATYYCQQAETVSPTFGQGTKVEIKR | > 50 |

Other lines, results leading:

| % inhibition of poly(I:C)-induced NF-κB luciferase reporter [%] | Binder |
| --- | --- |
| > 50 | mAb 3 (antibody, V domains shown) VH: QVELQQSGPGLVKPSQTLSLTCAISGDSVSTRSAAWGWIRQSPGRGLEWLGRIHRRSKWYNDYAVSVKSRITINPDTSKNQFSLQLNSVTPEDTAVYYCARHTYPYLSFDVWGQGTLVTVSS VL: DIELTQPPSVSVAPGQTARISCSGDALGGYFVSWYQQKPGQAPVLVIYDDDNRPSGIPERFSGSNSGNTATLTISGTQAEDEADYYCASYDGDEFTVFGGGTKLTVL |
| > 50 | mAb 6 (antibody, V domains shown) VH: QVELQQSGPGLVKPSQTLSLTCAISGDSVSTRSAAWGWIRQSPGRGLEWLGRIYMRSKWYNDYAVSVKSRITINPDTSKNQFSLQLNSVTPEDTAVYYCARHTYPYLSFDVWGQGTLVTVSS VL: DIELTQPPSVSVAPGQTARISCSGDALGGYFVSWYQQKPGQAPVLVIYDDDNRPSGIPERFSGSNSGNTATLTISGTQAEDEADYYCGSYDSNSLTVFGGGTKLTVL |
| > 50 | mAb 17 (antibody, V domains shown) VH: QVELQQSGPGLVKPSQTLSLTCAISGDSVSTRSAAWGWIRQSPGRGLEWLGRIYMRSKWYNDYAVSVKSRITINPDTSKNQFSLQLNSVTPEDTAVYYCARHTYPYLSFDVWGQGTLVTVSS VL: DIELTQPPSVSVAPGQTARISCSGDALGGYFVSWYQQKPGQAPVLVIYDDDNRPSGIPERFSGSNSGNTATLTISGTQAEDEADYYCASYDGDEFTVFGGGTKLTVL |
| > 50 | mAb 5 (antibody, V domains shown) VH: QVELQQSGPGLVKPSQTLSLTCAISGDSVSTRSAAWGWIRQSPGRGLEWLGRIYMRSKWYNDYAVSVKSRITINPDTSKNQFSLQLNSVTPEDTAVYYCARHTYPYLSFDVWGQGTLVTVSS VL: DIELTQPPSVSVAPGQTARISCSGDALGGYFVSWYQQKPGQAPVLVIYDDDNRPSGIPERFSGSNSGNTATLTISGTQAEDEADYYCQSYDEDSATVFGGGTKLTVL |
| > 50 | mAb 15 (antibody) heavy: not shown light: DIQMTQSPSSLSASVGDRVTITCRASQSIGLYLAWYQQKPGKAPKLLIYAASSLQSGVPSRFSGSGSGTDFTLTISSLQPEDFATYYCQQGNTLSYTFGQGTKVEIKRTVAAPSVFIFPPSDEQLKSGTASVVCLLNNFYPREAKVQWKVDNALQSGNSQESVTEQDSKDSTYSLSSTLTLSKADYEKHKVYACEVTHQGLSSPVTKSFNRGEC |
| > 50 | mAb 8 (antibody, V domains shown) VH: QVELQQSGPGLVKPSQTLSLTCAISGDSVSSNSAAWGWIRQSPGRGLEWLGIIQTRSKWYNDYAVSVKSRITINPDTSKNQFSLQLNSVTPEDTAVYYCARYSYPFYSIDYWGQGTLVTVSS VL: DIELTQPPSVSVAPGQTARISCSGDNIGSYYVHWYQQKPGQAPVLVIYEDSERPSGIPERFSGSNSGNTATLTISGTQAEDEADYYCQSYDSQFSFGVFGGGTKLTVL |
| > 50 | mAb 11 (antibody, V domains shown) VH: QVELQQSGPGLVKPSQTLSLTCAISGDSVSSNSAAWGWIRQSPGRGLEWLGIIQKRSKWYNNYAVSVKSRITINPDTSKNQFSLQLNSVTPEDTAVYYCARYSYPFYSIDYWGQGTLVTVSS VL: DIELTQPPSVSVAPGQTARISCSGDNIGSYYVHWYQQKPGQAPVLVIYEDSERPSGIPERFSGSNSGNTATLTISGTQAEDEADYYCSSYDEPNFNVFGGGTKLTVL |
| > 50 | mAb 10 (antibody, V domains shown) VH: QVELQQSGPGLVKPSQTLSLTCAISGDSVSSNSAAWGWIRQSPGRGLEWLGIIQKRSKWYNNYAVSVKSRITINPDTSKNQFSLQLNSVTPEDTAVYYCARYSYPFYSIDYWGQGTLVTVSS VL: DIELTQPPSVSVAPGQTARISCSGDNIGSYYVHWYQQKPGQAPVLVIYEDSERPSGIPERFSGSNSGNTATLTISGTQAEDEADYYCQSYDTPVYSVFGGGTKLTVL |
| > 50 | mAb 19 (antibody, V domains shown) VH: QVELVQSGAEVKKPGESLKISCKGSGYSFTNYWVGWVRQMPGKGLEWMGFIDPSDSYTNYAPSFQGQVTISADKSISTAYLQWSSLKASDTAMYYCARELYQGYMDTFDSWGQGTLVTVSS VL: DIQMTQSPSSLSASVGDRVTITCRASQSIGLYLAWYQQKPGKAPKLLIYAASSLQSGVPSRFSGSGSGTDFTLTISSLQPEDFATYYCQQYGSVSITFGQGTKVEIK |
| > 50 | mAb 1 (antibody, V domains shown) V domain 1: GVELVQSGAEVKKPGESLKISCKGSGYSFTDNWISWVRQAPGKGLEWMGVIDPSDSYTNYAPSFQGQVTISADKSISTAYLQWSSLKASDTAMYYCAREWGIGGMVDIWG V domain 2: DIVLTQSPATLSLSPGERATLSCRASQYIDISYLAWYQQKPGQAPRLLIYDASSRATGVPARFSGSGSGTDFTLTISSLEPEDFAVYYCQQYYSLSITFGQGTKVEIK |

Each binder was assayed against full-length murine TLR3 (mouse) (assay: cell-based or functional assay).

| Binder | IC50, poly(I:C)-induced ISRE luciferase reporter [µg/mL] |
| --- | --- |
| mAb 5429 (antibody, V domains shown) VH: EVQLVASGGGLVKPGASLKLSCVASGFTFSDYWMAWVRQTPGKPMEYIGDIKSDGSKVNYAPSLKNRFTISRDNARTTLYLQMSNVRSEDTATYYCNRDIGPDWYFDFWGPGTMVTVSS VL: DIQMTQSPTSLSASLGETVTIECRASEDIYNGLAWYQQKPGKSPQLLIYDSNSLHTGVPSRFSGRGSGTQYSLRINSLQSEDVASYFCQQYYDYPLTFGSGTKLEIKR | 0.5 |
| mAb 15 (antibody) heavy: not shown light: DIQMTQSPSSLSASVGDRVTITCRASQSIGLYLAWYQQKPGKAPKLLIYAASSLQSGVPSRFSGSGSGTDFTLTISSLQPEDFATYYCQQGNTLSYTFGQGTKVEIKRTVAAPSVFIFPPSDEQLKSGTASVVCLLNNFYPREAKVQWKVDNALQSGNSQESVTEQDSKDSTYSLSSTLTLSKADYEKHKVYACEVTHQGLSSPVTKSFNRGEC | 22 |
